Laboratory results published in publication PMC5739299 (Molecular Biology of the Cell, 2017).

Molecular target: T1, Alcadein α-FLAG, wild type, dephosphorylated with λPPase (human, UniProt O94985-2 29-971, dephosphorylated with λPPase on the beads)
T1 sequence (looked up): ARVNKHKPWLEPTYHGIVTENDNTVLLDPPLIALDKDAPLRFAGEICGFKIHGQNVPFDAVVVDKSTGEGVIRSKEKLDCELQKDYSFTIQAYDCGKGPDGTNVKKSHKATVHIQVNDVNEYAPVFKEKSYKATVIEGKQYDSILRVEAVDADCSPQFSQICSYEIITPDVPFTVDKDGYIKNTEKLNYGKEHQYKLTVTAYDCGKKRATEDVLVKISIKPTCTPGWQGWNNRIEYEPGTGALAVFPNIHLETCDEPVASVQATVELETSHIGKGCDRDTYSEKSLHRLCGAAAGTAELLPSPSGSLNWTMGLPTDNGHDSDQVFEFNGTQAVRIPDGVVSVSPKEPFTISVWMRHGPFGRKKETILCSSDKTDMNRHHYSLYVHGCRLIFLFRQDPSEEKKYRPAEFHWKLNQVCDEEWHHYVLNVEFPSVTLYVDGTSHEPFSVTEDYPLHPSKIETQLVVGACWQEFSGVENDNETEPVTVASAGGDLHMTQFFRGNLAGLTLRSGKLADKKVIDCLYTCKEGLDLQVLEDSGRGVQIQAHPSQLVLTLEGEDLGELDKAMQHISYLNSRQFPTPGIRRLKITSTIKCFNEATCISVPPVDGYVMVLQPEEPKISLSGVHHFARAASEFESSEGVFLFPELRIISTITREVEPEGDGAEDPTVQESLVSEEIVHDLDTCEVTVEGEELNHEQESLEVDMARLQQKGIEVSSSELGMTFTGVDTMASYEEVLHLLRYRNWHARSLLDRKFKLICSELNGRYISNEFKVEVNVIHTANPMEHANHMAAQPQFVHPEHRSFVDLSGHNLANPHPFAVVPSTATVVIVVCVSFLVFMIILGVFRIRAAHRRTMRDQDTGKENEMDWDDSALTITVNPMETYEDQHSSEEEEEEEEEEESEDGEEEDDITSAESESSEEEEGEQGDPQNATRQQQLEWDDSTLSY
Assay: pull-down

recovery of HA-KLC1 relative to Alcα-FLAG without λPPase treatment: ~20%
B1: HA-KLC1 (kinesin light chain 1) (natural protein, UniProt O88447 1-541, looked up)
chain: MYDNMSTMVYIKEEKLENVTQDEIISKTKQVIQGLEALKNEHNSILQSLLETLKCLKKDDESNLVEEKSSMIRKSLEMLELGLSEAQVMMALSNHLNAVESEKQNVRAQVRRLCQENQWLRDELANTQQKLQKSEQSVAQLEEEKKHLEFMNQLKKYDDDISPSEDKDSDSSKEPLDDLFPNDEDEPGQGIQHSDSSAAAARQGYEIPARLRTLHNLVIQYASQGRYEVAVPSCKQALEDLEKTSGHDHPDVATMLNILALVYRDQNKYKDAANLLNDALAIREKTLGRDHPAVAATLNNLAVLYGKRGKYKEAEPLCKRALEIREKVLGKDHPDVAKQLNNLALLCQNQGKYEEVEYYYQRALGIYQTKLGPDRTPNVAKTKNNLASCYLKQGKFKQAETLYKEILTRAHEAEFGSVDDENKPIWMHAEEREECKGKQKDGSAFGEYGGWYKACKVDSPTVTTTLKNLGALYRRQGKFEAAETLEEAAMRSRKQGLDNVHKQRVAEVLNDPESMEKRRSRESLNMDVVKYESGPDGGEEA
